How the values were obtained:
HLA-A*02:01 = HLA-A*02:01 (Homo sapiens, UniProt P04439, D140Y/D185E/D98H/E176V/E277Q/G131W/G231S/I119V/I121R/I166T/I218V/L300P/L318F/N151K/N90K/P208A/P217A/Q86G/Q94H/R138H/R169H/T345S); assay: MHC binding assay: UV-ligand exchange with β2m ELISA; conditions: binding of HLA-class I restricted peptides to HLA-A*02:01
Description: Candidate peptides for T cell based therapies according to the present invention were further tested for their MHC binding capacity (affinity). The individual peptide-MHC complexes were produced by UV-ligand exchange, where a UV-sensitive peptide is cleaved upon UV-irradiation, and exchanged with the peptide of interest as analyzed. Only peptide candidates that can effectively bind and stabilize the peptide-receptive MHC molecules prevent dissociation of the MHC complexes. To determine the yield of the exchange reaction, an ELISA was performed based on the detection of the light chain (β2m) of stabilized MHC complexes. The assay was performed as generally described in Rodenko et al. (Rodenko et al., 2006).
96 well MAXISorp plates (NUNC) were coated over night with 2 ug/ml streptavidin in PBS at room temperature, washed 4× and blocked for 1 h at 37° C. in 2% BSA containing blocking buffer. Refolded HLA-A*02:01/MLA-001 monomers served as standards, covering the range of 15-500 ng/ml. Peptide-MHC monomers of the UV-exchange reaction were diluted 100-fold in blocking buffer. Samples were incubated for 1 h at 37° C., washed four times, incubated with 2 ug/ml HRP conjugated anti-β2m for 1 h at 37° C., washed again and detected with TMB solution that is stopped with […]. Absorption was measured at 450 nm. Candidate peptides that show a high exchange yield (preferably higher than 50%, most preferred higher than 75%) are generally preferred for a generation and production of antibodies or fragments thereof, and/or T cell receptors or fragments thereof, as they show sufficient avidity to the MHC molecules and prevent dissociation of the MHC complexes.

CD8+ T cells = assay: In vitro T-cell priming assay with aAPCs loaded with peptide/MHC complexes and anti-CD28 antibody, pMHC multimer readout; format: cell-based, human; conditions: percentage of positive wells among evaluable, HLA-A*02 restricted peptides
Description: In order to obtain information regarding the immunogenicity of the TUMAPs of the present invention, the inventors performed investigations using an in vitro T-cell priming assay based on repeated stimulations of CD8+ T cells with artificial antigen presenting cells (aAPCs) loaded with peptide/MHC complexes and anti-CD28 antibody.
In order to perform in vitro stimulations by artificial antigen presenting cells loaded with peptide-MHC complex (pMHC) and anti-CD28 antibody, the inventors first isolated CD8+ T cells from fresh HLA-A*02 leukapheresis products via positive selection using CD8 microbeads (Miltenyi Biotech, Bergisch-Gladbach, Germany) of healthy donors obtained from the University clinics Mannheim, Germany, after informed consent.
PBMCs and isolated CD8+ lymphocytes were incubated in T-cell medium (TCM) until use consisting of RPMI-Glutamax (Invitrogen, Karlsruhe, Germany) supplemented with 10% heat inactivated human AB serum (PAN-Biotech, Aidenbach, Germany), 100 U/ml Penicillin/100 μg/ml Streptomycin (Cambrex, Cologne, Germany), 1 mM sodium pyruvate (CC Pro, Oberdorla, Germany), 20 μg/ml Gentamycin (Cambrex). 2.5 ng/ml IL-7 (PromoCell, Heidelberg, Germany) and 10 U/ml IL-2 (Novartis Pharma, Nürnberg, Germany) were also added to the TCM at this step.
Generation of pMHC/anti-CD28 coated beads, T-cell stimulations and readout was performed in a highly defined in vitro system using four different pMHC molecules per stimulation condition and 8 different pMHC molecules per readout condition.
The purified co-stimulatory mouse IgG2a anti human CD28 Ab 9.3 (Jung et al., 1987) was chemically biotinylated using Sulfo-N-hydroxysuccinimidobiotin as recommended by the manufacturer (Perbio, Bonn, Germany). Beads used were 5.6 μm diameter streptavidin coated polystyrene particles (Bangs Laboratories, Illinois, USA).
pMHC used for positive and negative control stimulations were A*0201/MLA-001 (peptide […] (SEQ ID NO. 157) from modified Melan-A/MART-1) and A*0201/DDX5-001 ([…] from DDX5, SEQ ID NO. 158), respectively.
800.000 beads/200 μl were coated in 96-well plates in the presence of 4×12.5 ng different biotin-pMHC, washed and 600 ng biotin anti-CD28 were added subsequently in a volume of 200 μl. Stimulations were initiated in 96-well plates by co-incubating 1×10^6 CD8+ T cells with 2×10^5 washed coated beads in 200 μl TCM supplemented with 5 ng/ml IL-12 (PromoCell) for 3 days at 37° C. Half of the medium was then exchanged by fresh TCM supplemented with 80 U/ml IL-2 and incubating was continued for 4 days at 37° C. This stimulation cycle was performed for a total of three times. For the pMHC multimer readout using 8 different pMHC molecules per condition, a two-dimensional combinatorial coding approach was used as previously described (Andersen et al., 2012) with minor modifications encompassing coupling to 5 different fluorochromes. Finally, multimeric analyses were performed by staining the cells with Live/dead near IR dye (Invitrogen, Karlsruhe, Germany), CD8-FITC antibody clone SK1 (BD, Heidelberg, Germany) and fluorescent pMHC multimers. For analysis, a BD LSRII SORP cytometer equipped with appropriate lasers and filters was used. Peptide specific cells were calculated as percentage of total CD8+ cells. Evaluation of multimeric analysis was done using the FlowJo software (Tree Star, Oregon, USA). In vitro priming of specific multimer+CD8+ lymphocytes was detected by comparing to negative control stimulations.
Exemplary flow cytometry results after TUMAP-specific multimer staining for 2 peptides of the invention are shown in FIGS. 3A and 3B together with corresponding negative controls. Additional exemplary flow cytometry results after TUMAP-specific multimer staining for 3 peptides of the invention are shown in FIGS. 4A-4C together with corresponding negative controls.

Substance	Peptide exchange (MHC class I binding score, peptide exchange yield) (HLA-A*02:01)	Wells positive [%] (CD8+ T cells)
8 (AQLNIGNVLPV; listed as Homo sapiens) [compound 8]	++++ (>75% = ++++)	+ (<20% = +)
10 (TLWPATPPKA; listed as Homo sapiens) [compound 10]	+++ (>50 = +++)	+ (<20% = +)
11 (VLFSSPPVI; listed as Homo sapiens) [compound 11]	++++ (>75% = ++++)	++ (20%-49% = ++)
12 (TLTDEINFL; listed as Homo sapiens) [compound 12]	++++ (>75% = ++++)	+ (<20% = +)
13 (SLVSYLDKV; listed as Homo sapiens) [compound 13]	++++ (>75% = ++++)	++ (20%-49% = ++)
16 (ALKDSVQRA; listed as Homo sapiens) [compound 16]	+++ (>50 = +++)	+ (<20% = +)
17 (SIWPALTQV; listed as Homo sapiens) [compound 17]	++++ (>75% = ++++)	++++ (>=70% = ++++)
18 (YLYPDLSRL; listed as Homo sapiens) [compound 18]	++++ (>75% = ++++)	+ (<20% = +)
19 (ALAKLLPLL; listed as Homo sapiens) [compound 19]	++++ (>75% = ++++)	++ (20%-49% = ++)
20 (YLINEIDRIRA; listed as Homo sapiens) [compound 20]	++++ (>75% = ++++)	+ (<20% = +)
26 (TLVDENQSWYL; listed as Homo sapiens) [compound 26]	+++ (>50 = +++)	++ (20%-49% = ++)
28 (AVDPVSGSLYV; listed as Homo sapiens) [compound 28]	++++ (>75% = ++++)	+++ (50%-69% = +++)
29 (RLLPDLDEV; listed as Homo sapiens) [compound 29]	++++ (>75% = ++++)	++ (20%-49% = ++)
30 (TLASLGYAVV; listed as Homo sapiens) [compound 30]	+++ (>50 = +++)	+++ (50%-69% = +++)
82 (VLDINDNPPV; listed as Homo sapiens) [compound 82]	+++ (>50 = +++)	+ (<20% = +)

From patent publication US10688131B2, “Peptides and scaffolds for use in immunotherapy against head and neck squamous cell carcinoma and other cancers” (Immatics Biotechnologies GmbH, priority 2016, dated 2020)
